# Test results as given in article PMC3846092.
# Molecular target: Cd^2+-bound Y82C-KcsA (UniProt P0A334)
# Test: crystal structure
substance,measurement,value
Cd^2+-bound Y82C-KcsA (from UniProt P0A334 1-160) (natural protein),stoichiometry N,4
